Source: paper PMC8920257

Experiments:
Experiment in all cases: SPR
ACE2 p.Phe40Leu (human) = ACE2 p.Phe40Leu (human) (UniProt Q9BYF1)
ACE2 p.Glu35Lys (human) = ACE2 p.Glu35Lys (human) (UniProt Q9BYF1)
ACE2 p.Asp355Asn (human) = ACE2 p.Asp355Asn (human) (UniProt Q9BYF1)
ACE2 p.Ser19Pro (human) = ACE2 p.Ser19Pro (human) (UniProt Q9BYF1)
ACE2 p.Lys26Arg (human) = ACE2 p.Lys26Arg (human) (UniProt Q9BYF1)
ACE2 p.Glu37Lys (human) = ACE2 p.Glu37Lys (human) (UniProt Q9BYF1)
ACE2 p.Gly326Glu (human) = ACE2 p.Gly326Glu (human) (UniProt Q9BYF1)
ACE2 p.Pro389His (human) = ACE2 p.Pro389His (human) (UniProt Q9BYF1)
ACE2 p.Glu329Gly (human) = ACE2 p.Glu329Gly (human) (UniProt Q9BYF1)
ACE2 p.Thr27Arg (human) = ACE2 p.Thr27Arg (human) (UniProt Q9BYF1)

SARS-CoV-2 Spike receptor binding domain (from UniProt P0DTC2) (domain or fragment)
SPR ΔΔG against ACE2 WT (ACE2 p.Phe40Leu (human)): 0.11 kcal/mol
ΔΔG against ACE2 WT (ACE2 p.Phe40Leu (human)): 0.14 kcal/mol
SPR ΔΔG against ACE2 WT (ACE2 p.Glu35Lys (human)): -0.36 kcal/mol
ΔΔG against ACE2 WT (ACE2 p.Glu35Lys (human)): -0.29 kcal/mol
SPR ΔΔG against ACE2 WT (ACE2 p.Asp355Asn (human)): < -3.16 kcal/mol
SPR ΔΔG against ACE2 WT (ACE2 p.Ser19Pro (human)): 0.59 kcal/mol
SPR ΔΔG against ACE2 WT (ACE2 p.Lys26Arg (human)): 0.26 kcal/mol
ΔΔG against ACE2 WT (ACE2 p.Lys26Arg (human)): 0.31 kcal/mol
SPR ΔΔG against ACE2 WT (ACE2 p.Glu37Lys (human)): -1.33 kcal/mol
ΔΔG against ACE2 WT (ACE2 p.Glu37Lys (human)): -1.25 kcal/mol
SPR ΔΔG against ACE2 WT (ACE2 p.Gly326Glu (human)): -0.65 kcal/mol
ΔΔG against ACE2 WT (ACE2 p.Gly326Glu (human)): -0.67 kcal/mol
SPR ΔΔG against ACE2 WT (ACE2 p.Pro389His (human)): 0.27 kcal/mol
ΔΔG against ACE2 WT (ACE2 p.Pro389His (human)): 0.12 kcal/mol
SPR ΔΔG against ACE2 WT (ACE2 p.Glu329Gly (human)): -0.09 kcal/mol
ΔΔG against ACE2 WT (ACE2 p.Glu329Gly (human)): -0.06 kcal/mol
SPR ΔΔG against ACE2 WT (ACE2 p.Thr27Arg (human)): -0.11 kcal/mol
